In this experiment the target is retinoblastoma protein (RB1) (human) (UniProt P06400). Put plainly: cell-based or functional assay.
Sequence of retinoblastoma protein (RB1) (human) (P06400 2-928 limits assumed): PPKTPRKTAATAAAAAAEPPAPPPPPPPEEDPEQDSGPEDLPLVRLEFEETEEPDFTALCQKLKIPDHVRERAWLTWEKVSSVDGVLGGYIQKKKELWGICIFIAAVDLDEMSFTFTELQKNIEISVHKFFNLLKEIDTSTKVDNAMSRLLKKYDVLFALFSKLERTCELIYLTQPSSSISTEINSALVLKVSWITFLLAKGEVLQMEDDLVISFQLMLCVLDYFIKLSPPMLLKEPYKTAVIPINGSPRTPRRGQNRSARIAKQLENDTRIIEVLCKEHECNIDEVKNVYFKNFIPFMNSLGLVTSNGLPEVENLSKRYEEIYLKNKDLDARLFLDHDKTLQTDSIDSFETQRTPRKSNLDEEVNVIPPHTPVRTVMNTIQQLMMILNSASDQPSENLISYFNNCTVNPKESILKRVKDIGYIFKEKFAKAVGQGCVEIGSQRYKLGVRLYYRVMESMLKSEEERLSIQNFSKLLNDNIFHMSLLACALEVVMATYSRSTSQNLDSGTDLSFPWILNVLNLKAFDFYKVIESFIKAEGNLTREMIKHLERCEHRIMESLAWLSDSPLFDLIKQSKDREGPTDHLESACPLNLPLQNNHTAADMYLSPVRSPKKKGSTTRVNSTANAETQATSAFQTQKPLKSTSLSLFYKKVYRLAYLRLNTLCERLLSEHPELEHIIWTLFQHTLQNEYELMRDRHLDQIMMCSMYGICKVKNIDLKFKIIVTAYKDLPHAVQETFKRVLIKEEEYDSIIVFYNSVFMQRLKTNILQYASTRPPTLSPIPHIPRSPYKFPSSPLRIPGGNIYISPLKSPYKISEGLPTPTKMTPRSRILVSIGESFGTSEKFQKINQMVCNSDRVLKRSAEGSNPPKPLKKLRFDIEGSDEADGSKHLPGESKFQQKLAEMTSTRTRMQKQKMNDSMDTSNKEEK

“Truncated tumor-derived Merkel cell polyomavirus large T antigen LT339 (MCV339 strain, amino acid 1-455)”: the survivin protein level in BJ fibroblasts (ECL and quantitative LICOR immunoblotting) was 3 fold.

These data come from patent US20150086535A1.
